{"source": "paper PMC10786891", "about": "“Massively parallel profiling of RNA-targeting CRISPR-Cas13d”", "data": [{"biological_target": "T1, EsCas13d, nuclease-dead (Eubacterium siraeum, UniProt B0MS50, R295A;H300A;R849A;H854A)", "T1 sequence": "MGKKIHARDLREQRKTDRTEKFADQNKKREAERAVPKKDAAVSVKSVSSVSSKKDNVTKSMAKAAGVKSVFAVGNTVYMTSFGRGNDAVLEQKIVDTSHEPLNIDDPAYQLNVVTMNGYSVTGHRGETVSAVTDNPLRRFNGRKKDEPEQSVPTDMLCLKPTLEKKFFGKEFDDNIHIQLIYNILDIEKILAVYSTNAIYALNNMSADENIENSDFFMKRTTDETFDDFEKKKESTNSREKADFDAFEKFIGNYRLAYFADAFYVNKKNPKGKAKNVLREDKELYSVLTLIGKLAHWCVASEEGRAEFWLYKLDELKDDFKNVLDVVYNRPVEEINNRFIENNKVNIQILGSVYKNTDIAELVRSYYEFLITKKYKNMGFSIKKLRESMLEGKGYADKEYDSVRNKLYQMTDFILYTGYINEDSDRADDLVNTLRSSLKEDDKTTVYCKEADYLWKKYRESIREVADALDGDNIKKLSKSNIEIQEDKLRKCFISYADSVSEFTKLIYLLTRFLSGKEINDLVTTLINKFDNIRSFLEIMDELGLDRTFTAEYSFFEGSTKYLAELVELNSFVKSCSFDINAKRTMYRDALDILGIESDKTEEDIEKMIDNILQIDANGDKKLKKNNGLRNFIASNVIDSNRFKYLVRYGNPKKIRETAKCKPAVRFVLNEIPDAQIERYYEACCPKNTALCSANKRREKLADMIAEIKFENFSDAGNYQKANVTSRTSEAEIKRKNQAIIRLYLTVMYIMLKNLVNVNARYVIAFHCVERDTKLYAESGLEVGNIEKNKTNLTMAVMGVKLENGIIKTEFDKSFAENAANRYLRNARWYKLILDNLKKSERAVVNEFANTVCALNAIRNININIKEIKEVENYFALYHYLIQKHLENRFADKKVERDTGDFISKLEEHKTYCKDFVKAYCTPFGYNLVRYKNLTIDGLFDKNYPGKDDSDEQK", "assay": "crRNA (strand 1, pre-loaded); Mg2+; 40 mM Tris-HCl pH 7.5, 150 mM NaCl, 6 mM MgCl2, 1 mM DTT, 0.1% Tween-20, 0.2 mg/ml BSA; 25 C; 10 min per concentration, then washed", "conditions": "tags: His6-TwinStrep-SUMO cleaved; N-terminal SNAP kept (SNAP-Surface 488); label: 3' end held by stalled T7 RNA polymerase", "units": {"Kd": "nM"}, "values": [{"binder": "target 3 insG 3' of 8,insU 3' of 5 (mixed) RNA 1: CACCCGUGCAAAAUUGCAGGGGUCUAAAACGACCUGAAUAUUUCAGAUCAAA RNA 2: GGGAAUGGAUCCACAUCUACGAAUUCGUUUUUGAUCUGAAAUAUGUCAUGGUCUGCAGAUCGGAAGAGCACACGU", "Kd": "31.7 ± 2.8"}, {"binder": "target 3 insU 3' of 22,insA 3' of 22 (mixed) RNA 1: CACCCGUGCAAAAUUGCAGGGGUCUAAAACGACCUGAAUAUUUCAGAUCAAA RNA 2: GGGAAUGGAUCCACAUCUACGAAUUCGUUUUAUUGAUCUGAAAUAUUCAGGUCUGCAGAUCGGAAGAGCACACGU", "Kd": "13.4 ± 1.35"}, {"binder": "target 3 C1G,U21A (mixed) RNA 1: CACCCGUGCAAAAUUGCAGGGGUCUAAAACGACCUGAAUAUUUCAGAUCAAA RNA 2: GGGAAUGGAUCCACAUCUACGAAUUCGUUUAUGAUCUGAAAUAUUCAGGUGUGCAGAUCGGAAGAGCACACGU", "Kd": "44.5 ± 10.5"}, {"binder": "target 3 G4U,U8C (mixed) RNA 1: CACCCGUGCAAAAUUGCAGGGGUCUAAAACGACCUGAAUAUUUCAGAUCAAA RNA 2: GGGAAUGGAUCCACAUCUACGAAUUCGUUUUUGAUCUGAAAUACUCAUGUCUGCAGAUCGGAAGAGCACACGU", "Kd": "39 ± 5"}, {"binder": "target 3 U2A,U8A (mixed) RNA 1: CACCCGUGCAAAAUUGCAGGGGUCUAAAACGACCUGAAUAUUUCAGAUCAAA RNA 2: GGGAAUGGAUCCACAUCUACGAAUUCGUUUUUGAUCUGAAAUAAUCAGGACUGCAGAUCGGAAGAGCACACGU", "Kd": "39 ± 6"}, {"binder": "target 3 U2A,U8G (mixed) RNA 1: CACCCGUGCAAAAUUGCAGGGGUCUAAAACGACCUGAAUAUUUCAGAUCAAA RNA 2: GGGAAUGGAUCCACAUCUACGAAUUCGUUUUUGAUCUGAAAUAGUCAGGACUGCAGAUCGGAAGAGCACACGU", "Kd": "29.8 ± 3.4"}, {"binder": "target 3 G3U,U22G (mixed) RNA 1: CACCCGUGCAAAAUUGCAGGGGUCUAAAACGACCUGAAUAUUUCAGAUCAAA RNA 2: GGGAAUGGAUCCACAUCUACGAAUUCGUUGUUGAUCUGAAAUAUUCAGUUCUGCAGAUCGGAAGAGCACACGU", "Kd": "94 ± 21.5"}, {"binder": "target 3 insA 3' of 6,insG 3' of 6 (mixed) RNA 1: CACCCGUGCAAAAUUGCAGGGGUCUAAAACGACCUGAAUAUUUCAGAUCAAA RNA 2: GGGAAUGGAUCCACAUCUACGAAUUCGUUUUUGAUCUGAAAUAUUCAGAGGUCUGCAGAUCGGAAGAGCACACGU", "Kd": "41 ± 4.5"}, {"binder": "target 3 G3A,G4C (mixed) RNA 1: CACCCGUGCAAAAUUGCAGGGGUCUAAAACGACCUGAAUAUUUCAGAUCAAA RNA 2: GGGAAUGGAUCCACAUCUACGAAUUCGUUUUUGAUCUGAAAUAUUCACAUCUGCAGAUCGGAAGAGCACACGU", "Kd": "9.25 ± 0.85"}, {"binder": "target 3 insA 3' of 22,insA 3' of 8 (mixed) RNA 1: CACCCGUGCAAAAUUGCAGGGGUCUAAAACGACCUGAAUAUUUCAGAUCAAA RNA 2: GGGAAUGGAUCCACAUCUACGAAUUCGUUUAUUGAUCUGAAAUAUAUCAGGUCUGCAGAUCGGAAGAGCACACGU", "Kd": "98.5 ± 35.5"}, {"binder": "target 3 insG 3' of 8,insC 3' of 4 (mixed) RNA 1: CACCCGUGCAAAAUUGCAGGGGUCUAAAACGACCUGAAUAUUUCAGAUCAAA RNA 2: GGGAAUGGAUCCACAUCUACGAAUUCGUUUUUGAUCUGAAAUAUGUCAGCGUCUGCAGAUCGGAAGAGCACACGU", "Kd": "38.5 ± 8"}, {"binder": "target 3 A13G,U22A (mixed) RNA 1: CACCCGUGCAAAAUUGCAGGGGUCUAAAACGACCUGAAUAUUUCAGAUCAAA RNA 2: GGGAAUGGAUCCACAUCUACGAAUUCGUUAUUGAUCUGGAAUAUUCAGGUCUGCAGAUCGGAAGAGCACACGU", "Kd": "43 ± 15"}, {"binder": "target 3 insA 3' of 6,insA 3' of 3 (mixed) RNA 1: CACCCGUGCAAAAUUGCAGGGGUCUAAAACGACCUGAAUAUUUCAGAUCAAA RNA 2: GGGAAUGGAUCCACAUCUACGAAUUCGUUUUUGAUCUGAAAUAUUCAAGGAUCUGCAGAUCGGAAGAGCACACGU", "Kd": "6.15 ± 0.6"}, {"binder": "target 3 A12G (mixed) RNA 1: CACCCGUGCAAAAUUGCAGGGGUCUAAAACGACCUGAAUAUUUCAGAUCAAA RNA 2: GGGAAUGGAUCCACAUCUACGAAUUCGUUUUUGAUCUGAGAUAUUCAGGUCUGCAGAUCGGAAGAGCACACGU", "Kd": "43 ± 7.5"}, {"binder": "target 3 insG 3' of 7,insC 3' of 3 (mixed) RNA 1: CACCCGUGCAAAAUUGCAGGGGUCUAAAACGACCUGAAUAUUUCAGAUCAAA RNA 2: GGGAAUGGAUCCACAUCUACGAAUUCGUUUUUGAUCUGAAAUAUUGCAGGCUCUGCAGAUCGGAAGAGCACACGU", "Kd": "46 ± 5"}, {"binder": "target 3 G4A,U22G (mixed) RNA 1: CACCCGUGCAAAAUUGCAGGGGUCUAAAACGACCUGAAUAUUUCAGAUCAAA RNA 2: GGGAAUGGAUCCACAUCUACGAAUUCGUUGUUGAUCUGAAAUAUUCAAGUCUGCAGAUCGGAAGAGCACACGU", "Kd": "56.5 ± 9"}, {"binder": "target 3 insA 3' of 7,insA 3' of 3 (mixed) RNA 1: CACCCGUGCAAAAUUGCAGGGGUCUAAAACGACCUGAAUAUUUCAGAUCAAA RNA 2: GGGAAUGGAUCCACAUCUACGAAUUCGUUUUUGAUCUGAAAUAUUACAGGAUCUGCAGAUCGGAAGAGCACACGU", "Kd": "37 ± 4.5"}, {"binder": "target 3 C1A,A5U (mixed) RNA 1: CACCCGUGCAAAAUUGCAGGGGUCUAAAACGACCUGAAUAUUUCAGAUCAAA RNA 2: GGGAAUGGAUCCACAUCUACGAAUUCGUUUUUGAUCUGAAAUAUUCUGGUAUGCAGAUCGGAAGAGCACACGU", "Kd": "5.9 ± 1"}, {"binder": "target 3 insC 3' of 3,insA 3' of 2 (mixed) RNA 1: CACCCGUGCAAAAUUGCAGGGGUCUAAAACGACCUGAAUAUUUCAGAUCAAA RNA 2: GGGAAUGGAUCCACAUCUACGAAUUCGUUUUUGAUCUGAAAUAUUCAGGCUACUGCAGAUCGGAAGAGCACACGU", "Kd": "18.6 ± 2.2"}, {"binder": "target 3 insG 3' of 7,insA 3' of 2 (mixed) RNA 1: CACCCGUGCAAAAUUGCAGGGGUCUAAAACGACCUGAAUAUUUCAGAUCAAA RNA 2: GGGAAUGGAUCCACAUCUACGAAUUCGUUUUUGAUCUGAAAUAUUGCAGGUACUGCAGAUCGGAAGAGCACACGU", "Kd": "32.5 ± 5.75"}, {"binder": "target 3 U2G,A5C (mixed) RNA 1: CACCCGUGCAAAAUUGCAGGGGUCUAAAACGACCUGAAUAUUUCAGAUCAAA RNA 2: GGGAAUGGAUCCACAUCUACGAAUUCGUUUUUGAUCUGAAAUAUUCCGGGCUGCAGAUCGGAAGAGCACACGU", "Kd": "120 ± 32.5"}, {"binder": "target 3 C1U,C6A (mixed) RNA 1: CACCCGUGCAAAAUUGCAGGGGUCUAAAACGACCUGAAUAUUUCAGAUCAAA RNA 2: GGGAAUGGAUCCACAUCUACGAAUUCGUUUUUGAUCUGAAAUAUUAAGGUUUGCAGAUCGGAAGAGCACACGU", "Kd": "59 ± 21"}, {"binder": "target 3 C1A,A11G (mixed) RNA 1: CACCCGUGCAAAAUUGCAGGGGUCUAAAACGACCUGAAUAUUUCAGAUCAAA RNA 2: GGGAAUGGAUCCACAUCUACGAAUUCGUUUUUGAUCUGAAGUAUUCAGGUAUGCAGAUCGGAAGAGCACACGU", "Kd": "41 ± 14.5"}, {"binder": "target 3 A5U (mixed) RNA 1: CACCCGUGCAAAAUUGCAGGGGUCUAAAACGACCUGAAUAUUUCAGAUCAAA RNA 2: GGGAAUGGAUCCACAUCUACGAAUUCGUUUUUGAUCUGAAAUAUUCUGGUCUGCAGAUCGGAAGAGCACACGU", "Kd": "65.5 ± 14.5"}, {"binder": "target 3 insG 3' of 6,insU 3' of 4 (mixed) RNA 1: CACCCGUGCAAAAUUGCAGGGGUCUAAAACGACCUGAAUAUUUCAGAUCAAA RNA 2: GGGAAUGGAUCCACAUCUACGAAUUCGUUUUUGAUCUGAAAUAUUCGAGUGUCUGCAGAUCGGAAGAGCACACGU", "Kd": "11.3 ± 1.2"}, {"binder": "target 1 insG 3' of 21,insC 3' of 1 (mixed) RNA 1: CACCCGUGCAAAAAUGCAGGGGUCUAAAACUGAGCGGAUAACCUCUCUAUGG RNA 2: GGGAAUGGAUCCACAUCUACGAAUUCGUACCGAUAGAGAGGUUAUCCGCUCACCCGAGAUCGGAAGAGCACACGU", "Kd": "69 ± 12"}, {"binder": "target 1 insG 3' of 21,insG 3' of 1 (mixed) RNA 1: CACCCGUGCAAAAAUGCAGGGGUCUAAAACUGAGCGGAUAACCUCUCUAUGG RNA 2: GGGAAUGGAUCCACAUCUACGAAUUCGUACCGAUAGAGAGGUUAUCCGCUCAGCCGAGAUCGGAAGAGCACACGU", "Kd": "66 ± 10"}, {"binder": "target 1 insG 3' of 21,insA 3' of 2 (mixed) RNA 1: CACCCGUGCAAAAAUGCAGGGGUCUAAAACUGAGCGGAUAACCUCUCUAUGG RNA 2: GGGAAUGGAUCCACAUCUACGAAUUCGUACCGAUAGAGAGGUUAUCCGCUCAACCGAGAUCGGAAGAGCACACGU", "Kd": "54 ± 13"}]}]}
